Experimental data published in publication PMC8754201, “Structures of Two Human Astrovirus Capsid/Neutralizing Antibody Complexes Reveal Distinct Epitopes and Inhibition of Virus Attachment to Cells” (Journal of Virology, 2021).

B1: scFv 2D9 (single-chain variable fragment of mouse monoclonal antibody 2D9) (scFv, V domains shown)
VH: QVQLKQSGPGLVQPSQSLSITCTVSGFSLTSYGVHWVRQSPGKGLEWLGVIWSGGSTDYNAAFISRLSISKDNSKSQVFFKMNSLQANDTAIYYCARNSLLDAMDYWGQGTSVTVSS
VL: SIVMTQTPKFLLVSAGDRVTITCKASQSVSNAVAWYQQKPGQSPKLLIYYASNRYTGVPDRFTGSGYGTDFTFTISTVQAEDLAVYFCQQDYSSPLTFGAGTKLELK
notes: 2D9 kappa chain variable region; GGS(GGGGS)3 linker; 2D9 heavy chain variable region; A thrombin cleavage site stands between the scFv and the C-terminal Twin Strep-tag; source: D. melanogaster Schneider 2 (S2) cells, stably transfected, secreted, purified (StrepTrap HP)
B2: scFv 2D9, purification tag removed by thrombin (scFv, V domains shown)
VH: B1 VH
VL: B1 VL
notes: 2D9 kappa chain variable region, as in m5; GGS(GGGGS)3 linker; 2D9 heavy chain variable region, as in m5; Same construct as m5 after thrombin digestion; source: D. melanogaster Schneider 2 (S2) cells, stably transfected, secreted, purified (StrepTrap HP); tag removed with thrombin during complex formation; not shown: Twin Strep-tag, C-terminal, cleaved
B3: scFv 3E8 (single-chain variable fragment of mouse monoclonal antibody 3E8) (scFv, V domains shown)
VH: DVQLQESGPGLVKPSQSLSLTCSVTGYSITSGYYWNWIRQFPGNKLEWMGYISYDGSNNYNPSLKNRISITRDTSKNQFFLKLNSVTTEDTATYYCATFYDGYDYWGQGTTLTVSS
VL: DIVMTQSHKFMSTSVGDRVSITCKASQDVSTAVAWYQQKPGQSPKLLIYWASTRHTGVPDRFTGSGSGTDYTLTISSVQAEDLALYYCQQHYSTPFTFGSGTKLEIK
notes: 3E8 kappa chain variable region; GGS(GGGGS)3 linker; 3E8 heavy chain variable region; A thrombin cleavage site stands between the scFv and the C-terminal Twin Strep-tag; source: CHO-S cells (electroporated), secreted, purified (StrepTrap HP)
B4: scFv 3E8, purification tag removed by thrombin (scFv, V domains shown)
VH: B3 VH
VL: B3 VL
notes: 3E8 kappa chain variable region, as in m3; GGS(GGGGS)3 linker; 3E8 heavy chain variable region, as in m3; Same construct as m3 after thrombin digestion; source: CHO-S cells (electroporated), secreted, purified (StrepTrap HP); tag removed with thrombin during complex formation; not shown: Twin Strep-tag, C-terminal, cleaved

Key:
Conditions in all cases: both partners purified
[1] = target: T1, HAstV8 capsid spike (Spike 8) fused to a 10x histidine tag (Human astrovirus 8 (HAstV-8), Q9IFX1, UniProt Q9IFX1); experiment: BLI; His-tagged Spike 8 (0.5 ug/ml) loaded on Anti-Penta-His (HIS1K) biosensors; scFv as analyte in six 1:2 serial dilutions (from 80 nM scFv 3E8 or 20 nM scFv 2D9); PBS pH 7.4, 2% BSA, 0.09% Tween 20; 22 C; global 1:1 fit; mean of triplicate assays
T1 construct: HAstV serotype 8 capsid spike protein, amino acids 429 to 647 of the capsid protein (UniProtKB entry Q9IFX1); A thrombin cleavage site stands between the spike and the C-terminal 10-histidine tag (pET52b); Captured on Anti-Penta-His sensors by the tag; also called His-tagged Spike 8; HAstV serotype 8 capsid spike protein; not shown: His10, C-terminal, kept

[2] = target: T2, HAstV8 capsid spike (Spike 8), purification tag removed by thrombin (human astrovirus serotype 8 (HAstV8), UniProt Q9IFX1); experiment: SEC; 3.5 molar excess scFv 2D9 with Spike 8 overnight at 4 C, tags removed with thrombin; Superdex 200 in TBS pH 8.0; coeluted at apparent ~105 kDa against gel filtration standards; data not shown
T2 construct: HAstV serotype 8 capsid spike protein, amino acids 429 to 647 of the capsid protein (UniProtKB entry Q9IFX1); Same construct as m1 after thrombin digestion; residues of the thrombin site may remain at the C-terminus; source: tag removed with thrombin during complex formation; not shown: His10, C-terminal, cleaved

[3] = target: T2, HAstV8 capsid spike (Spike 8), …; experiment: SEC; 3 molar excess scFv 3E8 with Spike 8 overnight at 4 C, tags removed with thrombin; Superdex 200 in TBS pH 7.2; coeluted at apparent ~105 kDa against gel filtration standards; data not shown

T2 sequence (Q9IFX1 429-647): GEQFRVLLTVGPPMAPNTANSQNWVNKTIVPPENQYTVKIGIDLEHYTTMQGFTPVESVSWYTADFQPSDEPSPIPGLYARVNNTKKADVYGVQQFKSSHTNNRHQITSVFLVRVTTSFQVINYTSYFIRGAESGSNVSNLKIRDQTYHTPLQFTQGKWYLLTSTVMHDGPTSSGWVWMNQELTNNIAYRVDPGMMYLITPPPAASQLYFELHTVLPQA
T1 sequence (Q9IFX1 429-647, one chain of several): as the sequence (Q9IFX1 429-647) above

| Binder | Kd [1] [nM] | further results |
| --- | --- | --- |
| B1 | 0.00245 | – |
| B2 | – | stoichiometry N [2]: 1 scFv per Spike 8 protomer (2:2 complex) |
| B3 | 40 | – |
| B4 | – | stoichiometry N [3]: 1 scFv per Spike 8 protomer (2:2 complex) |
